Reference: the NTF2 design screens of Basanta et al. (2020)

Assay: protease stability score; higher = more stable; yeast display proteolysis, trypsin and chymotrypsin;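 note: log10 excess protease needed over predicted unfolded state with 0 meaning unfolded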

Point of comparison: “DEKETHKVLEKIEKVLHNFNIDEAKKVLKDDVRVQYLDEEYHGPDAAEKRLTKVKKLGAQVEYKEAHVEGNRVKAKVQVNVGGRTLEFTVEYTAKGHKVDEFRVQYDEDAQKTIKHG”, protease stability score 0.76. Against it:
- DEENVEAAHRFFEALNTNNPDELVKQFDPNARFRYGDTDIHGREHFRKWVKDQLDQIRFTLTSMTANVHNGKVRIELRFIKHHNGRPRDVNQEVRADVHNGKIKNLSVSDRG — lower, 0.563
- DKKANSMAHDLIRNRNSNNPERLKEMMDPNVEIVIGDKTVNGTHEYERQQRQRDRQIQIDVKSVTFKDRPNHAQVRFDAVFHHNGQPDRRVQEVIIRQRNGKVKHIHVQDTE — lower, -0.365
- DDRVADLLRKWWEAVRTGDPDRAANQVDPNAKVEYGDKQVHGREQIRTELDERKRNAKFEYKIKTYNKDEDHVKVEAEAVVVINGRPHKFTYQVHARADGDKIKHMRIELPEDVLHEMQG — lower, 0.553
- DEHELRRQADDFWHAVRTGDEKRIVELLDPNAHAVVGDKRYHGEKQIRQLVRSMREQVDTFRVSSITVSGDDIEIDIVLNVNGREFRATIVLRQHNGKVTELKLHPNINRALES — higher, 1.28
- DEKQLTLLRRIFEALLRNDEDKLKDLLDPNVKVRYGDKDLHGRENVAESIVRTNQEARFHVRRVTFRDHNGQAKVKVDFDQQHNGQPRSARLDVSMQRHNGRVKSISFKVDT — lower, 0.649
- DEKEDLTRWIEQFVHNLEHGDEERLSQLADPNARFKYGDRTLHGMENAIKTLADVMRRVDQVRIRINDITHHENRVIVDLSFVLNHNGQERHYNAKMVAYIHNGTFRIETASMK — higher, 0.929
- DEEALEILRDAWEALRTGDHEKLRELFDKNANVRIGEKRFEGSDEIMRDWLTTIRNIRFHIHDIKFTVNGDKAVVRVNVNFEHNGKPQSDVYRMSAEADNGRIKSADADRDK — lower, 0.391
- DDENMSAFERWLHAVETGNPQKVKEQMDENAKLDVGEKDVTGMDEIRRQLEKEMKRMRVTIQRYDLQVHNGQVVVRQTVVNKNDGQPRRRTNVVHVDIRNGRIQRIIQRDDG — lower, 0.42
- DEEEIRHINRKLLKALQEGNEHEVAKLADKDASFDIGDKTYNGRHQVRNMIRKIRSQVDHMTVERMSISNGRIFVFIVFEINGRTRRTNQVVEVKNGRIKEVHVKET — lower, 0.145
- DDSRRATEFNKQYREVFRTGDPRKFEDYMDPNARAHYGDKELHGREQLRNYWKELTDNADHLDVQIHHLHVSGDDVNVDFQWNIDVNGENVQRKVVIIARLENGQVRAKQIVEK — lower, -0.143
- DEEDVKTLMNLMRNNNFEDLQRMADPNAKVIVGDQTYQGQKEVRTFLHKLKDQIDHLDIKSLDYHNGRVVLDVEATVNGQRFRYVLTVDVHNGHVKSVRFQARSEKDERILKEQAS — higher, 1.11
- DSREEAKRFFTKMVEIFKTGDEDEAHEMADKNARVHVGDKTVRGREQYTRKMSKEVKQVDHAEYRIQDVEVQGEHIRITFVRRIDTNGRTNEQHLVMEAEKHNGRIYIKQIHES — lower, -0.159
- DEDRKAREFIHDEQRAFEQNNPDDIVRLADPNVRVNIGEHDVRGHEDFKKWVDELLEKYDQINFKVTSVSVRGDHIEATVMIQNQKNGEDDTHVVLITLKDHNGRLLIEMIQER — lower, 0.315
- DQRERQEHAEHFNRVLQTNDPDRIKKLFDPNAKLQIGDSTFTGREDIDDAAKELKEQADHITVDRVHVHGNKVTLRFVMNVDGKSADATVTMIVKNGRAKEVHFDPRLEEQIKK — lower, -0.407
- DEKEDRKLLQQLAEMFQNGDVERVRKLGKDDVEAEYGDERQHGPDAMKKFVERVKKLGAKVEYKEVHVEGDTVTAKVQADYAGQTVEMHVTYQAQGRRMDRVKVKYDETAQKVIKHG — lower, 0.566
- DEENQRLAEEFIRAFEKGNPDQAATMADPNVKIDIGEKRIHGHEELKKWIEELQRQMRVEVEHYEVEADGDKVIARLIFRQEHNGKPQEDKEQVNIRFHNGRAKSVTIRSTK — lower, 0.028
- DETNVRSVERFVHALKQGDPDKLHRNADPNVKVQIGDKVIHGREELSKDQKRRNKSMRLSYKDYRNEDTNGNVIVHLTFTSERDGQPRENEYRAHITLNNGKIREVDMKSDG — lower, -0.288
- DDEKLANEFQTKFRSVMETNDEENMRKLADKDARLNVGDDDVHGREQVARYLAEVLRRVDTFRVRYEDVDIRNGQVRVTMEIHNNHNGSDRTDRVHLQMEVTGDTASLKRITEG — lower, 0.259
- DEEELKHLMKVQTTGDPDKYEEMADKDVKAKIGDETYHGRETVLTQLRRMLTQIDHLEVKNVDTQGDKVNLRAVANYNGQELDVIYVLVVHNGRVDNMEIDARDEKVEDQLRQAMS — lower, -0.348
- DEDEDIRSWMKQFEEVVKTGDSKHAADMFDKNAKMQYGDKTYHGRDDVKSVLDHLLRRADHVRLELLDVKSNGESVHAVMLITFVVDGQTDSYHVELVFVVDNGRRNLHTATTK — higher, 0.872
- DERDANEMMRVIREGDFNKFRQMADENVSAVYGDKTVRGRETIKRIIHRIKRHVDHLKVDSLSTTGDHVTVDAVMHVNGQRVHFVMVVRVQNGHIKEVQFEVRNEEAQKRLEQVLS — higher, 1.18
- DENVVKEVEKLLEWIQSGNEQHIQEMMDKHARAQVGDQKVKGRKQVSTQWRRLAEDIDIHARVKDMKNDGNRAILEIHQVRHHNGDPDEFHANQIVTMHGDRIKHLELQNTK — lower, -0.283
- DEEASKQLEEYLRALQTGDSHRVQQLLDPNAKARVGDHTYHGHKEILDWLNKLNEKMRFSIERLSVSVRGDQVEFSFKFDATFNGRPFHASQTMQINVHNGRLKKLTIQLDPEQLDTQRS — lower, -0.088
- DEHARHLVSELLRALESGDPDQLVKMADPNVEAQIGDKRYTGRSHMKKMQEDLKREMRYHVTDFHVEVNGNTAVADVDASVEHNGQPRRHRYRIVITFENGRAKDFSIQRDK — higher, 1.12
